# In patent US20090130697A1 (COLORADO STATE UNIVERSITY RESEARCH FOUNDATION, published 2009):
# Target: FLS:Trg:EnvZ:AHK4 hybrid transmembrane histidine kinase (FLS2 plant leader, Trg extracellular domain, EnvZ, …)
# Assay: cell-based or functional assay
binder,measurement,value
"SS-TNT, computationally designed TNT receptor (sensor protein): PEX secretory sequence fused to the periplasmic ribose binding protein engineered to bind TNT (designed binder) MERPFGCFFILLLISYTVVAKDTIALVVSTLNSPFLVSLKDGAQKEADKLGYNLVVLDSQNNPAKELANVQDLTVRGTKILLINPTDSDAVGNAVKMANQANIPVITLSSQATKGEVVSHIASDNVLGGKIAGDYIAKKAGEGAKVIELQGIAGTSSARESGEGFQQAVAAHKFNVLASQPADIDRIKGLNVMQNLLTAHPDVQAVFAQFDEMALGALRALQTAGKSDVMVVGFSGTPDGEKAVNDGKLAATIASLPDQIGAKGVETADKVLKGEKVQAKYPVDLKLVVKQDYKDDDDK",GUS expression from the ARR5 promoter in transgenic Arabidopsis in response to TNT,~2 fold
